Key:
[1] = target: HlgB (Staphylococcus aureus, strain , UniProt P0A077); experiment: ELISA; conditions: both partners purified
[2] = target: LukD (Staphylococcus aureus, strain , UniProt O54082); experiment: ELISA; conditions: both partners purified
[3] = target: LukE (Staphylococcus aureus, strain , UniProt O54081); experiment: ELISA; conditions: both partners purified
[4] = target: HlgC (Staphylococcus aureus, strain , UniProt Q07227); experiment: ELISA; conditions: both partners purified
[5] = target: HlgA (Staphylococcus aureus, strain , UniProt P0A074); experiment: ELISA; conditions: both partners purified
[6] = target: LukF (Staphylococcus aureus, strain , UniProt Q5FBD2); experiment: ELISA; conditions: both partners purified
[7] = target: Hlb (Staphylococcus aureus, strain , UniProt P09978); experiment: ELISA; conditions: both partners purified
[8] = target: native Hla in S. aureus 8325-4 supernatants (Staphylococcus aureus 8325-4 (NCTC 8325 …, UniProt Q2G1X0)); experiment: far-Western, overlay or dot blot; conditions: one partner purified
Chain of native Hla in S. aureus 8325-4 supernatants (Staphylococcus aureus 8325-4 (Q2G1X0 27-319): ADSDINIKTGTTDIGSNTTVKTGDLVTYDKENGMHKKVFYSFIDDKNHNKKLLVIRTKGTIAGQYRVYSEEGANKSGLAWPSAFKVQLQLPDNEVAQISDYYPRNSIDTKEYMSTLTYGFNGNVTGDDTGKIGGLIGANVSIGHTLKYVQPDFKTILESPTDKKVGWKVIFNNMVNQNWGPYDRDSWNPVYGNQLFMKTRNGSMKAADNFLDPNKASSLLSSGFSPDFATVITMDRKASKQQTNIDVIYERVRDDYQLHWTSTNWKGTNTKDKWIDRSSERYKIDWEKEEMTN

Chain of LukE (O54081 29-314): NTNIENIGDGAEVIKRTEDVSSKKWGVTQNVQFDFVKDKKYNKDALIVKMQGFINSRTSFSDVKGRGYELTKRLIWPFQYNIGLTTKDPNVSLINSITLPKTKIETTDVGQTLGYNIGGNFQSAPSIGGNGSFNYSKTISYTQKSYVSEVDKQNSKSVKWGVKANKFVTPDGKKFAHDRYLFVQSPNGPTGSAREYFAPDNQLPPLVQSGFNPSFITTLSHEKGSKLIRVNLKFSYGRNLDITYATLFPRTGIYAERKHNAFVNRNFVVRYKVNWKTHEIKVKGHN
Chain of HlgB (P0A077 26-325): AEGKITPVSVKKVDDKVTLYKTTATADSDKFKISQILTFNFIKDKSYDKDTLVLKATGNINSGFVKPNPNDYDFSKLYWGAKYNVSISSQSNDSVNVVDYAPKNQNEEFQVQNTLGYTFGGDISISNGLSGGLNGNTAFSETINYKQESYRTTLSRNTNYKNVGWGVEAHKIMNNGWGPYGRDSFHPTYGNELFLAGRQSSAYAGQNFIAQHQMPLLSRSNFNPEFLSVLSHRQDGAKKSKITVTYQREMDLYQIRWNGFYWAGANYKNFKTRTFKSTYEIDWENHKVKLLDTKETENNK
Chain of HlgC (Q07227 30-315): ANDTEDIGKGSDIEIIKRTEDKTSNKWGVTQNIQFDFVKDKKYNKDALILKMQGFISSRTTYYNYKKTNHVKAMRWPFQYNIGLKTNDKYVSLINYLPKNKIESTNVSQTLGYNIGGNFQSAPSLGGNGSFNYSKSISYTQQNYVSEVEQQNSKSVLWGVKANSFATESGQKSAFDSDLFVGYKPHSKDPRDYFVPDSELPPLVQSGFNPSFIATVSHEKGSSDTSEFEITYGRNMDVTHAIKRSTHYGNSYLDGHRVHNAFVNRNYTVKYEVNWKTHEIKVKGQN
Chain of HlgA (P0A074 30-309): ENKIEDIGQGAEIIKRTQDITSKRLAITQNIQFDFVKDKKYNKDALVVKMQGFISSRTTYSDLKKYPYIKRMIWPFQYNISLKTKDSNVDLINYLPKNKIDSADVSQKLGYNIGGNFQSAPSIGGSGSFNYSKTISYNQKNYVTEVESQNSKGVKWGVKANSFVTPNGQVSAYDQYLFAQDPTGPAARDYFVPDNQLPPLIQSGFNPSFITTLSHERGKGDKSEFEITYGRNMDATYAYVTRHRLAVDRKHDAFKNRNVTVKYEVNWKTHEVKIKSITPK
Chain of LukF (P31715 26-323): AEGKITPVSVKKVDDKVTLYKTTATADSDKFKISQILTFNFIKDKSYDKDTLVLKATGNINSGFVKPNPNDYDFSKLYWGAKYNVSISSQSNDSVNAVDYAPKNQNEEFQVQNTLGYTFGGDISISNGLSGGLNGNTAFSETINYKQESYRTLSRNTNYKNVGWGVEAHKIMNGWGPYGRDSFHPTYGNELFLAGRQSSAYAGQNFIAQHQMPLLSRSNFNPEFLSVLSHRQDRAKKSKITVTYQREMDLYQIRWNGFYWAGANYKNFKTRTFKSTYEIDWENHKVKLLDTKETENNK
Chain of Hlb (P09978 35-330): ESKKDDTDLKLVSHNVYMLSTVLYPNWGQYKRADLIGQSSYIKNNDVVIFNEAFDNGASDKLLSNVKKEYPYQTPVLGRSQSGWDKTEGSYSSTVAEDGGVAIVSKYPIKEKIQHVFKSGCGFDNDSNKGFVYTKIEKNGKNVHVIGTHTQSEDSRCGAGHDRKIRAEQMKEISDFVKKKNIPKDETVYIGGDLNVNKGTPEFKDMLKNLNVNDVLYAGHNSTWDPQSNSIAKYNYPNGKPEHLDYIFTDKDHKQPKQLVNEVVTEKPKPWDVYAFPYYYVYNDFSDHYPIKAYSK
Chain of LukD (O54082 27-327): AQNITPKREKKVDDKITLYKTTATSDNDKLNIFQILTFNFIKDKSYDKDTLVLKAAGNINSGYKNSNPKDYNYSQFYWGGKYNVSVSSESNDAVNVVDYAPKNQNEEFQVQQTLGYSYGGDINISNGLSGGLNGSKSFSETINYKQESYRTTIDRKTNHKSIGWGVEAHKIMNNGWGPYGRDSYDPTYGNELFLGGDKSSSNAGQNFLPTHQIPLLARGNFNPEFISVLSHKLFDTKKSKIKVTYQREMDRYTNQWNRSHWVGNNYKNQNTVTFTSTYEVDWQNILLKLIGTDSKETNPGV

B1: YG1 human anti-Hla monoclonal antibody (antibody, V domains shown)
VH: QVQLVQSGAEMQKPGASVKVSCKVTGYALASLSLHWVRQTPGAGLEWLGGLDPGHGETIYAEKLQGRVVMTGDTSTDTAYMQLSSLTSEDTAIYYCASDWLRHGFEFWGQGTTVTVSS
VL: EIVLTQSPATLSVSPGDGATLSCRASQSVSGNLAWYQKKPGQAPRLLIYDTSIRAAGVPPRFSGSGSGTEFTLTISSLQSEDFAVYYCQQYHNLPPLTFGPGTKLEIK
notes: also called YG1 mAb; source: expressed and purified as a full-length human IgG1 antibody
- binding result [1]: no binding (tested: 1 μg/ml)
- binding result [2]: no binding (tested: 1 μg/ml)
- binding result [3]: no binding (tested: 1 μg/ml)
- binding result [4]: no binding (tested: 1 μg/ml)
- binding result [5]: no binding (tested: 1 μg/ml)
- binding result [6]: no binding (tested: 1 μg/ml)
- binding result [7]: no binding (tested: 1 μg/ml)
- binding result [8]: binds

Source: paper PMC8319846 (Frontiers in Microbiology, 2021)
